Measured values reported in patent US6518063, “Osf2/Cbfa1 nucleic acids and methods of use therefor” (Board of Regents, The University of Texas System).

B1: Osteocalcin (OG2) OSE2 (dsDNA)
DNA 1: AGCTGCAATCACCAACCACAGCA
DNA 2: TGCTGTGGTTGGTGATTGCAGCT
B2: Osteopontin OSE2 (dsDNA)
DNA 1: CGCTCTTTGTGCAAACCACACAG
DNA 2: CTGTGTGGTTTGCACAAAGAGCG

Experiments:
Osf2/Cbfa1 [1] = target: T1, Osf2/Cbfa1 (Mus musculus, UniProt Q08775 SEQ:1-528); experiment: cell_activity; p6OSE2-luc (6 copies), F9 cells; conditions: tags: pCMV5 expression
T1 sequence (Q08775 80-607): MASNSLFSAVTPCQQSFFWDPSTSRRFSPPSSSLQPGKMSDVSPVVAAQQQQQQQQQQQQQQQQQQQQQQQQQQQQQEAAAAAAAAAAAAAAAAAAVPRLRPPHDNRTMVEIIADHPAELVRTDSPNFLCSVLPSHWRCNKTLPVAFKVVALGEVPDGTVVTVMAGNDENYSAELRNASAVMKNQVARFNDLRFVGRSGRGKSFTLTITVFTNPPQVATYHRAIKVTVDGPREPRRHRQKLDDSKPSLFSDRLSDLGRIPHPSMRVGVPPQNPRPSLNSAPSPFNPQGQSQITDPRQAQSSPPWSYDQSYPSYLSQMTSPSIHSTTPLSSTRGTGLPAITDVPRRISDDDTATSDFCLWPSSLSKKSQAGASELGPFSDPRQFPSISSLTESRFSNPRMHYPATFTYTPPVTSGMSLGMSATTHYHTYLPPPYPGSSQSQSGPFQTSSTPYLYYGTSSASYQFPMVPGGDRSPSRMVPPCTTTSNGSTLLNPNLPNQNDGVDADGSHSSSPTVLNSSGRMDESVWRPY
Method: After transfection the cells were washed twice with PBS (150 mM NaCl, 10 mM sodium phosphate [pH 7.2]), and regular medium was added for 24 h. Cells were harvested and lysed by three cycles of freeze-thawing. β-galactosidase activities present in each lysate, measured by a colorimetric enzyme assay (Ausubel et al., 1997) using resorufin β-D-galactopyranoside (Boehringer Mannheim) as a substrate, were used to normalize the transfection efficiency between different studies. DNA cotransfections (Ausubel et al., 1997) were performed in duplicates and repeated at least four times with quantitatively and qualitatively similar results. Luciferase activities were assayed using a Monolight 2010 luminometer (Analytical Luminescence Laboratory, San Diego, Calif.) and D-luciferin substrate (Analytical Luminescence Laboratory) in 100 mM Tris-HCl [pH 7.8], 5 mM ATP, 15 mM MgSO_4, 1 mM dithiothreitol (DTT). For overexpression studies, expression plasmids were transfected for 4 h with Lipofectamin (GIBCO) following the manufacturer's instructions. RNA were harvested 40 h after transfection. […]
The transcriptional activity of Osf2/Cbfa1 was assessed by DNA cotransfection studies. […]

[2] = target: His-Cbfa2 + His-Cbfb heterodimer (UniProt Q03347;Q08024 Q03347:1-451,Q08024:1-187); experiment: EMSA; slower heterodimer complex; conditions: tags: 6xHis on each (pTrcHis); chain copies: 2 (1:1 heterodimer, inferred); label: 32P
Chain of His-Cbfa2 + His-Cbfb heterodimer (Q03347 whole entry, chain 1 of 2, the tested form may be a part): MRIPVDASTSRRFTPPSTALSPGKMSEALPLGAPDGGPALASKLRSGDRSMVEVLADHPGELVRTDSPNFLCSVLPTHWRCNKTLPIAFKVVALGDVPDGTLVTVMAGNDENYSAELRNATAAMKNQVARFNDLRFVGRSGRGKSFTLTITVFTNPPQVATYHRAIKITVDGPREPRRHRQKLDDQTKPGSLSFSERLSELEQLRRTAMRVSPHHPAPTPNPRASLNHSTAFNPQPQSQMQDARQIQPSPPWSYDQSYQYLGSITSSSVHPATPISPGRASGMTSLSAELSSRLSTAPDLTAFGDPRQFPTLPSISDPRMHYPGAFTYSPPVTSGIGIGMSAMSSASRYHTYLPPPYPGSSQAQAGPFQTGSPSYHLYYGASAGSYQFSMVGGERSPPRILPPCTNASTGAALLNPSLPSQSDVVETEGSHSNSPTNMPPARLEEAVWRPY
Chain of His-Cbfa2 + His-Cbfb heterodimer (Q08024 whole entry, chain 2 of 2, the tested form may be a part): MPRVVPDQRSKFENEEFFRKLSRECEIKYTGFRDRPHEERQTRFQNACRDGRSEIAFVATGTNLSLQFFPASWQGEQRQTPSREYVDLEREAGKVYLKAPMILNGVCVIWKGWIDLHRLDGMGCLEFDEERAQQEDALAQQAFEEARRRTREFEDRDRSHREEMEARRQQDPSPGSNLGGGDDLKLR
Method: (§1) 5.6.1.3 Generation of Recombinant Fusion Proteins, DNA-binding Assays, and In Vitro Binding Assays For protein production, bacterial cells were induced with 2 mM IPTG, and the fusion proteins were enriched using Ni-NTA agarose resin (Qiagen Chatsworth, Calif.) as per the manufacturer's guidelines. DNA-binding assays were performed with 5 fmol of ^32P-labeled double-stranded OSE2 oligonucleotides, in a buffer containing 20 mM Tris-HCl, pH 8.0, 10 mM NaCl, 3 mM EGTA, 0.05% NP-40, 5 mM DTT, and 2 μg of poly (dI.dC).poly (dI.dC), with equivalent amounts of wild type or mutant proteins. […] The proteins were checked for purity and quantified before use. ^35S-labeled Osf2 and Cbfa2 were synthesized in rabbit reticulocyte lysate using coupled in vitro transcription and translation (TNT kit, Promega). Typically, 100 ng of fusion protein bound to glutathione-agarose beads was used for each assay, while the amount of labeled protein in the assay was determined using fluorography. […]
(§2) Since Cbfβ is also expressed in osteoblasts, the inventors tested if Cbfβ was also a partner for Osf2 using an electrophoretic mobility shift assay (EMSA). […] In contrast, when using His-Cbfa2 protein as a positive control, the inventors always detected heterodimerization with Cbfβ, resulting in a protein-DNA complex of slower mobility (FIG. 18A, compare lanes 3 and 4). […]

OSF2/CBFA1a = OSF2/CBFA1a (Homo sapiens, UniProt Q13950 SEQ:1-521); experiment: cell_activity; p6OSE2-luc, F9 cells; conditions: tags: pCMV expression
Chain of OSF2/CBFA1a (Q13950 whole entry P266H/R267G): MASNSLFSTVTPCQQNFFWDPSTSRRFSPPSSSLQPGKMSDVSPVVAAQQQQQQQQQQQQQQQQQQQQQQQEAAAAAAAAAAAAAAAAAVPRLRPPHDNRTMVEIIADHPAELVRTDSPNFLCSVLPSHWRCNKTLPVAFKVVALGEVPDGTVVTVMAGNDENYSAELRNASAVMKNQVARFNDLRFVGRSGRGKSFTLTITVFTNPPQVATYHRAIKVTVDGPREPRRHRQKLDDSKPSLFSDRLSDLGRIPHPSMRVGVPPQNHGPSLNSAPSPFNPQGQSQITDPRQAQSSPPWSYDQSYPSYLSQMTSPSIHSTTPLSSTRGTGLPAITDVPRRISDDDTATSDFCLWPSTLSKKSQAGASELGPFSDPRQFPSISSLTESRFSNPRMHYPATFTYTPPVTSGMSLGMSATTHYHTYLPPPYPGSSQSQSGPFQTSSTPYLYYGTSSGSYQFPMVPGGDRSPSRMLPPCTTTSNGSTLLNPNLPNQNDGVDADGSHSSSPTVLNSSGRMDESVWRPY
Method: FIG. 8B. F9 mouse teratocarcinoma cells were transiently transfected with 5 μg of the reporter plasmid in presence of 5 μg of the indicated expression vector. Values are expressed relative to the basal activity of p6OSE2-luc which was set at 1. Data represent results from 3 independent transfection studies.
The mouse F9 teratocarcinoma cell line was used for the DNA transfection studies. The cells were plated on 10-cm dishes at a density of 5×10^5 cells/dish. Cells were transfected by the calcium phosphate coprecipitation method (Chen and Okayama, 1987), using 5 μg of reporter plasmid, 5 μg of expression plasmid and 2 μg of pRSV/βGal as previously described (Geoffroy et al., 1995). The p6OSE2-luc plasmid containing six copies of the wild-type OSE2 oligonucleotide in front of the −34/+13 mOG2 promoter-luciferase (luc) was used as reporter plasmid (Ducy and Karsenty, 1995). The pCMV-hOSF2/CBFA1a and pCMV-hOSF2/CBFA1b were used as expression plasmids. They contain respectively the full length hOSF2/CBFA1a cDNA and the hOSF2/CBFA1b cDNA lacking exon 8 in correct orientation downstream from the CMV promoter. Luciferase and β-galactosidase activities were assayed as previously described (Geoffroy et at, 1995). […]

His-Cbfa2 = His-Cbfa2 (Mus musculus, UniProt Q03347 SEQ:1-451); experiment: EMSA; conditions: tags: 6xHis (pTrcHis); label: 32P
Chain of His-Cbfa2 (Q03347 whole entry): as the sequence (Q03347 whole entry, chain 1 of 2, the tested form may be a part) above
Method: as §1, §2

[3] = target: delta.runt.PST + Cbfb heterodimer (UniProt Q08775;Q08024 Q08775:188-607,Q08024:1-187); experiment: EMSA; supershifted heterodimer complex; conditions: tags: 6xHis (pTrcHis); chain copies: 2 (1:1 heterodimer, inferred); label: 32P
Chain of delta.runt.PST + Cbfb heterodimer (Q08775 188-607, stated change not applied, chain 1 of 2): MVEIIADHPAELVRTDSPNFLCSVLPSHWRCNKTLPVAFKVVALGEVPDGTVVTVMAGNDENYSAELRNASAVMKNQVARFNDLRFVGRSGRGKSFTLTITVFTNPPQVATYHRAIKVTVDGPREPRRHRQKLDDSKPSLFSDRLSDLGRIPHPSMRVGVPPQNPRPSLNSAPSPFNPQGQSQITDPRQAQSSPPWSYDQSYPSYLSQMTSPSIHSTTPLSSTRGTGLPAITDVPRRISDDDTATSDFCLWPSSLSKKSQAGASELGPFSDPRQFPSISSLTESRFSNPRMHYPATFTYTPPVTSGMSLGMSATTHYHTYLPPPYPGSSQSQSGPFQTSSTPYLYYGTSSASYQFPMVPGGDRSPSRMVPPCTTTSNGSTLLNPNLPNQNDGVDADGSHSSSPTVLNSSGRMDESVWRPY
Chain of delta.runt.PST + Cbfb heterodimer (Q08024 whole entry, stated change not applied, chain 2 of 2, the tested form may be a part): as the sequence (Q08024 whole entry, chain 2 of 2, the tested form may be a part) above
Source text: FIG. 18A. The QA domain prevents heterodimerization of Osf2 with Cbfβ. EMSA done with labeled double-stranded OSE2 oligonucleotide, and equivalent amounts of the Histidine-tagged wild-type and mutant proteins, in the presence or absence of Cbfβ. The nonspecific band (NS) is indicated by an arrow. Arrowheads indicate the supershifted complexes seen in lanes 4 and 10.
as §1

Osf2/Cbfa1 [4] = target: T1, Osf2/Cbfa1; experiment: cell_activity; p910-Opn-luc promoter fragment, F9 cells; deletion of element abolished; conditions: tags: pCMV5 expression

Binder	activity (Osf2/Cbfa1 [1]) [fold activation]	binding result [2]	activity (OSF2/CBFA1a) [fold activation]	binding result (His-Cbfa2)	binding result [3]	activity (Osf2/Cbfa1 [4]) [fold activation]
B1	> 70	binds	75	binds	binds	–
B2	–	–	–	–	–	4
